Laboratory results as given in article PMC3074120 (Nucleic Acids Research, 2010).

B1: NHA-Δ5 (GW182 fragment Δ5, amino acids 1670-1962) (domain or fragment)
chain: TSAWSSIRASNYNVPLSSTAQSTSARNSDSKLTWSPGSVTNTSLAHELWKVPLPPKNITAPSRPPPGLTGQKPPLSTWDNSPLRIGGGWGNSDARYTPGSSWGESSSGRITNWLVLKNLTPQIDGSTLRTLCMQHGPLITFHLNLPHGNALVRYSSKEEVVKAQKSLHMCVLGNTTILAEFASEEEISRFFAQSQSLTPSPGWQSLGSSQSRLGSLDCSHSFSSRTDLNHWNGAGLSGTNCGDLHGTSLWGTPHYSTSLWGPPSSSDPRGISSPSPINAFLSVDHLGGGGESM
B2: NHA-Δ12 (GW182 fragment Δ12, amino acids 896-1219) (domain or fragment)
chain: FTWGNNINPNNSSGWDESSKPTPSQGWGDPPKSNQSLGWGDSSKPVSSPDWNKQQDIVGSWGIPPATGKPPGTGWLGGPIPAPAKEEEPTGWEEPSPESIRRKMEIDDGTSAWGDPSKYNYKNVNMWNKNVPNGNSRSDQQAQVHQLLTPASAISNKEASSGSGWGEPWGEPSTPATTVDNGTSAWGKPIDSGPSWGEPIAAASSTSTWGSSSVGPQALSKSGPKSMQDGWCGDDMPLPGNRPTGWEEEEDVEIGMWNSNSSQELNSSLNWPPYTKKMSSKGLSGKKRRRERGMMKGGNKQEEAWINPFVKQFSNISFSRDSPE
B3: NHA-Δ10 (GW182 fragment Δ10, amino acids 655-1343) (domain or fragment)
chain: QTNEQSSVWAKTGGTVESDGSTESTGRLEEKGTGESQSRDRRKIDQHTLLQSIVNRTDLDPRVLSNSGWGQTPIKQNTAWDTETSPRGERKTDNGTEAWGSSATQTFNSGACIDKTSPNGNDTSSVSGWGDPKPALRWGDSKGSNCQGGWEDDSAATGMVKSNQWGNCKEEKAAWNDSQKNKQGWGDGQKSSQGWSVSASDNWGETSRNNHWGEANKKSSSGGSDSDRSVSGWNELGKTSSFTWGNNINPNNSSGWDESSKPTPSQGWGDPPKSNQSLGWGDSSKPVSSPDWNKQQDIVGSWGIPPATGKPPGTGWLGGPIPAPAKEEEPTGWEEPSPESIRRKMEIDDGTSAWGDPSKYNYKNVNMWNKNVPNGNSRSDQQAQVHQLLTPASAISNKEASSGSGWGEPWGEPSTPATTVDNGTSAWGKPIDSGPSWGEPIAAASSTSTWGSSSVGPQALSKSGPKSMQDGWCGDDMPLPGNRPTGWEEEEDVEIGMWNSNSSQELNSSLNWPPYTKKMSSKGLSGKKRRRERGMMKGGNKQEEAWINPFVKQFSNISFSRDSPEENVQSNKMDLSGGMLQDKRMEIDKHSLNIGDYNRTVGKGPGSRPQISKESSMERNPYFDKDGIVADESQNMQFMSSQSMKLPPSNSALPNQALGSIAGLGMQNLNSVRQNGNPSMFGVGNTAAQ
B4: NHA-Δ12a (GW182 fragment Δ12a, amino acids 896-1045) (domain or fragment)
chain: FTWGNNINPNNSSGWDESSKPTPSQGWGDPPKSNQSLGWGDSSKPVSSPDWNKQQDIVGSWGIPPATGKPPGTGWLGGPIPAPAKEEEPTGWEEPSPESIRRKMEIDDGTSAWGDPSKYNYKNVNMWNKNVPNGNSRSDQQAQVHQLLTP

molecular target: GST-PIWI (PIWI domain of Ago2) (human, UniProt Q9UKV8 517-818); assay: pull-down
Sequence (Q9UKV8 517-818): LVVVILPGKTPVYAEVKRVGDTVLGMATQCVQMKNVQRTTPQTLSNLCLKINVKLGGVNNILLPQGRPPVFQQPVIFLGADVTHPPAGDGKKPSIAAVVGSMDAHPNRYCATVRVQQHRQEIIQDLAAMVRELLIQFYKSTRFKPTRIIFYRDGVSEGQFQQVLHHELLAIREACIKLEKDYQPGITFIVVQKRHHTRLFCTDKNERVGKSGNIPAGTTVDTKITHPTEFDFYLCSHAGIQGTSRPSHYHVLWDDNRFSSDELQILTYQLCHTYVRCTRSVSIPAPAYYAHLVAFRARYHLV

Binder	percent pull-down (of input) [%]
B1	4.2
B2	18
B3	≤ 85
B4	0.2
